Series [1] has as its target T1, Angiopoietin-2 (Ang2) (Homo sapiens, UniProt O15123 O15123:19-496). In words: flow. Conditions: tags: His tag, R&D Systems 623-AN; label: biotin.
The target of series [2] is T2, VEGF-121 (VEGFA isoform 121) (Homo sapiens, UniProt P15692 SEQ:1-121). In words: flow. Conditions: chain copies: 2 (inferred); label: biotin.
For series [3], the target named is T3, VEGF-165 (VEGFA isoform 165) (Homo sapiens).
T3 chain: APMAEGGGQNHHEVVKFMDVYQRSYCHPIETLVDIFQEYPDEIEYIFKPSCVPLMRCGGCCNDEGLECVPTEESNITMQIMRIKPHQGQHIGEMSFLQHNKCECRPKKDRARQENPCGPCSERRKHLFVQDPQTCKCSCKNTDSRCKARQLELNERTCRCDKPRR
The series can be described thus: flow; PBSMCT, 37 C. As to conditions: chain copies: 2 (inferred), label: biotin. How it is done:
(§1) Truncated and modified variants of the anti-VEGF aptamers of the present disclosure were prepared by LGC Biosearch Technologies (Novato, Calif.), and their binding affinity to corresponding targets were examined. Briefly, the equilibrium binding constants of the enriched libraries were measured using magnetic bead partitioning. Biotinylated anti-VEGF aptamers were conjugated to the 1 μm streptavidin-coated MyOne Streptavidin Cl magnetic beads (Thermo Fisher Scientific, 65002). Binding assays were performed by incubating fixed concentration of anti-VEGF aptamer (0.01 nM) and target protein at concentrations ranging from 10⁻¹² to 10⁻⁸ M in PBSMCT buffer (DPBS, pH 7.2 with 2.5 mM MgCl₂, 1 mM CaCl₂) and 0.01% TWEEN-20) at 37° C. for 90 minutes. Bound target protein was partitioned by magnetic separation and subsequently labeled via fluorescent anti-VEGF or anti-His-tag antibody. The fraction of anti-VEGF aptamer bound was quantified by flow cytometry (BD Accuri C6 Plus). Raw binding data were corrected for nonspecific background binding of target protein to empty magnetic beads. The fraction of bound anti-VEGF aptamer was plotted as a function of protein concentration and a non-linear curve-fitting algorithm (Langmuir one-site binding model) was used to extract equilibrium binding constants (KD values) from the data (FIG. 1).

Series [4] has as its target T2, VEGF-121 (VEGFA isoform 121). The series can be described thus: flow; PBSMCT, 37 C. As to conditions: chain copies: 2 (inferred), label: biotin. The procedure: as §1
The target in series [5] is T1, Angiopoietin-2 (Ang2). The series can be described thus: flow; PBSMCT, 37 C. As to conditions: tags: His tag, R&D Systems 623-AN; label: biotin. How it is done: Various mutations and truncated variants of a representative anti-Ang2 aptamer (AMS0525) were obtained and their binding affinity to Ang2 were measured using magnetic bead partitioning. Biotinylated anti-Ang2 aptamers were conjugated to the 1 μm streptavidin-coated MyOne Streptavidin Cl magnetic beads (Thermo Fisher Scientific, 65002). Binding assays were performed by incubating fixed concentration of aptamer (0.01 nM) and Ang2 protein at concentrations ranging from 10⁻¹² to 10⁻⁸ M in PBSMCT buffer (DPBS, pH 7.2 with 2.5 mM MgCl₂, 1 mM CaCl₂) and 0.01% TWEEN-20) at 37° C. for 90 minutes. Bound target protein was partitioned by magnetic separation and subsequently labeled via fluorescent anti-His-tag antibody. The fraction of anti-Ang2 aptamer bound was quantified by flow cytometry (BD Accuri C6 Plus). Raw binding data were corrected for nonspecific background binding of target protein to empty magnetic beads. The fraction of bound anti-Ang2 aptamer was plotted as a function of protein concentration and a non-linear curve-fitting algorithm (Langmuir one-site binding model) was used to extract equilibrium binding constants (KD values) from the data (FIG. 4A).

Broadly, the Kd is the free concentration of one partner at which half of the binding sites on the other are occupied at equilibrium, for simple one-to-one binding.

Where only a bound is given, the exact number is not on record here.

T1 sequence (O15123 19-496, one chain of several): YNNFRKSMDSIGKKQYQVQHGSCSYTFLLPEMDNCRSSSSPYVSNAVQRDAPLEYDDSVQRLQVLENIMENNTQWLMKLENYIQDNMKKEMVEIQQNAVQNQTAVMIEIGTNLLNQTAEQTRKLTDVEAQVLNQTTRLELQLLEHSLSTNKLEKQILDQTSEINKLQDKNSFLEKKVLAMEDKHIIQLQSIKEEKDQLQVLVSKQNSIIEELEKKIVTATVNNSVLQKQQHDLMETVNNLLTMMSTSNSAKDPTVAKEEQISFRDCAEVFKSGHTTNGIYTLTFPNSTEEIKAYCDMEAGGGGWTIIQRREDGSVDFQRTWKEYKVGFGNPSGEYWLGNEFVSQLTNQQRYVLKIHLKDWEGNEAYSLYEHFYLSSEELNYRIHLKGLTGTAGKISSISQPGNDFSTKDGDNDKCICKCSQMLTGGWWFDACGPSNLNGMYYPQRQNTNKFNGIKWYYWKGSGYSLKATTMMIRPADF

B1: AMSB102 (ssRNA)
RNA: CGUGGAGAUGCAUUCUGUCGAAGAUUGGCUAACACGCGCAUAGAUAAGCCAACAAACGUACAUUCUCUGUUAGUAUUUUCUGCG
modifications: 2'-F all positions
As to B1, the values for the Kd in series [1] and in series [2] were 0.056 nM and 0.092 nM, respectively. On to AUUCUGUCUUUUUAAAUAAUGUCCCCUUGUUGCACAUUACAGAA (ssRNA, 2'-F all positions) [AMS0403], for which the Kd in series [3] came out at 0.111 nM. In the case of CGUGGAGAUGCAUUCUUCGAGAUUGGCUAACACG (ssRNA, 2'-F all positions) [AMS0425.3], the Kd amounted to 0.981 nM in series [3] and 0.245 nM in series [4]. UCCGCUUGCGGAGCAUCUUCUGUAUUCUGC (ssRNA, 2'-F all positions) [AMS0408]: the Kd in series [4] was determined as 10.1 nM.

Take CAGGUGGAGAUGCAUUCUGUCGAAGAUUGGCUAACACCUG (ssRNA, 2'-F all positions) [AMS0425.10]: the values for the Kd in series [3] and in series [4] were 0.652 nM and 0.107 nM, respectively. Taken in the same sequence, the figures for GCGUAGAUGGCUAACACUAUUGUGGAGAUGCACUACGC (ssRNA, 2'-F all positions) [AMS0421.3] were 0.098 nM and 0.051 nM. For the molecule GCUCUUCGGUGUUAACUACCAAUCGUUGAUCGUUUUGCAAAAAAUUCC (ssRNA, 2'-F all positions) [AMS0406], the dissociation constant Kd in series [3] was found to be 0.324 nM.

For the molecule GCUCUUCAAUGUUAACUACCAAUCGUUGAUCGUUUUGCAGAAAAUUCC (ssRNA, 2'-F all positions) [AMS0405], the Kd in series [3] was found to be 1.01 nM.

As to CGCUAGAUGGCUAACACUAUUGUGGAGAUGCACUAGCG (ssRNA, 2'-OMe at 1-3 and 36-38, 2'-F elsewhere) [AMS0427.1], the results for the Kd in series [3] and in series [4] were 0.092 nM and 0.047 nM, respectively. Take CGCUAGAUGGCUAACACUAUUGUGGAGAUGCACUAGCG (ssRNA, LNA at 1-3 and 36-38, 2'-F elsewhere) [AMS0427.2]: the Kd came to 0.087 nM in series [3] and 0.043 nM in series [4]. In the same order, the values of UCCUUAGAUGGCUAACACGUAUAUUUGUGGAGAUGCACUA (ssRNA, 2'-F all positions) [AMS0421.1] are 0.101 nM and 0.049 nM. Taken in the same sequence, the figures for CGUGGAGAUGCAUUCUGUCGAGGAUUGGCUAACACG (ssRNA, 2'-F all positions) [AMS0425.1] were 0.356 nM and 0.294 nM. In the same order, the values of CGUGGAGAUGCGUUCCGUCGAGGAUCGGCUAACACG (ssRNA, 2'-F all positions) [AMS0425.8] are 0.876 nM and 0.287 nM. For the molecule CGCUAGUGGCGAACACGUAUAUUUGUGGCGAUGCACUAGCG (ssRNA, 2'-F all positions) [AMS0421.4], the dissociation constant (Kd) came out at 1.92 nM in series [3] and 0.471 nM in series [4]. Turning to GCCGUGGAGAUGCGUUCCGUCGGGAUCGGCUAACACGGC (ssRNA, 2'-F all positions) [AMS0425.11], the Kd in series [3] is 0.349 nM; in series [4], 0.124 nM. With CCGAUAAGCCAACAAACGUACAUUCUCUGUUAGUAUUCGG (ssRNA, 2'-F all positions) [AMS0525.4], in series [5], the Kd was over 1 nM. Same read-out and setting: the result for GCCUUAGAUAAGCCAACAAACGUACAUUCUCUGUUAGUAUUUUCAGGC (ssRNA, 2'-F all positions) [AMS0525.3] reads 0.033 nM; that for CGCAUAGAUAAGCCAACAAACGUACAUUCUCUGUUAGUAUUUUCUGCG (ssRNA, 2'-OMe at 1-4 and 45-48, 2'-F elsewhere) [AMS0525.5], 0.043 nM; that for CGCAUAGAUAAGCCAACAAACGUACAUUCUCUGUUAGUAUUUUCUGCG (ssRNA, LNA at 1-4 and 45-48, 2'-F elsewhere) [AMS0525.6], 0.029 nM. Consider CCAACCGUGUAUCUGUCUUGCUUGCGGCGGUUUUGUUGUG (ssRNA, 2'-F all positions) [AMS0416], for which the Kd in series [3] turned out to be 29.4 nM; in series [4], 0.654 nM. Consider GCUCUUCAGCCCCGCGCCGGGUCCCACUCUGCGCCGCUC (ssRNA, 2'-F all positions) [AMS0401], for which, in series [3], the Kd is 0.087 nM. In the case of CGUGGAGAUGCAUUCUGUCGAGGAUUGGCUAACACGCGAA (ssRNA, 2'-F all positions) [AMS0425], the Kd in series [3] came out at 0.102 nM; in series [4] it was 0.092 nM.

Regarding CCGGCCAUUGGUGGAGAUUAUCCUUUGAGUACGGUUAUUC (ssRNA, 2'-F all positions) [AMS0420], the Kd in series [3] was 0.87 nM; in series [4] it was 0.082 nM.

In the case of UCCGCUUGCGGAGCACCUUCUGUAUUCUGC (ssRNA, 2'-F all positions) [AMS0409], in series [4], the Kd was 14.2 nM.

For the molecule GCGGAUUGGCUAACACGGUCGACGUGGAGAUGCAUUCCGC (ssRNA, 2'-F all positions) [AMS0430], the Kd is 0.176 nM in series [3] (stem-loop with bulges) and 0.104 nM in series [4] (stem-loop with bulges).

In the case of GCCGUGGAGAUGCGUUCCGUCGAGGAUCGGCUAACACGGC (ssRNA, 2'-F all positions) [AMS0425.12], the dissociation constant (Kd) is 0.678 nM in series [3] and 0.126 nM in series [4].

For the molecule AGUUAUUUGGUGGAGAGGAUCCAUUUAGCUUAUACAAUUC (ssRNA, 2'-F all positions) [AMS0419], the Kd in series [3] was found to be 0.99 nM; in series [4], 0.095 nM.

Take UCCGCUUGCGGAGCAGCUUCUGUAUUCUGC (ssRNA, 2'-F all positions) [AMS0407]: in series [4], the Kd is 0.761 nM.

B2: AMS0525 (ssRNA)
RNA: GCAUAGAUAAGCCAACAAACGUACAUUCUCUGUUAGUAUUUUCUGCACACCGUCGCUUAGU
modifications: 2'-F all positions
B2: the Kd in series [5] was 0.404 nM. For GGAAAACAGUAUAAUGUCUUGUUUCUUCUC (ssRNA, 2'-F all positions) [AMS0410], the Kd in series [4] was found to be 11.8 nM. Consider GUGCUUCAUAUCCGUCCCCCCCUUGCUGCG (ssRNA, 2'-F all positions) [AMS0402], for which the Kd in series [3] was determined as 0.098 nM. Consider UUUCGCUAGAUGGCUAACACGUAUAUUUGUGGAGAUGCACUAGCG (ssRNA, 2'-F all positions) [AMS0421], for which the Kd was determined as 0.096 nM in series [3] (stem-loop with bulges) and 0.045 nM in series [4] (stem-loop with bulges).

B3: AMSB101 (ssRNA)
RNA: UUUCGCUAGAUGGCUAACACGUAUAUUUGUGGAGAUGCACUAGCGCGCAUAGAUAAGCCAACAAACGUACAUUCUCUGUUAGUAUUUUCUGCG
modifications: 2'-F all positions
In the case of B3, the Kd in series [1] is 0.138 nM; in series [2], 0.125 nM. Turning to CGCUAGAUGGCCUAACACGUAUAUUUGUGGAGAUGGCACUAGCG (ssRNA, 2'-F all positions) [AMS0421.5], the Kd in series [3] came to 0.879 nM; in series [4], 0.511 nM. As to GGUUUAUCUUAACUUUCUGCUACGAUACAGUUUUUGUUGA (ssRNA, 2'-F all positions) [AMS0411], the Kd in series [4] is 1.19 nM. Regarding UUCUGUCUUUUUAGAUAAUGUCCCCUUGUUGCACAUUACA (ssRNA, 2'-F all positions) [AMS0404], in series [3], the Kd was 0.419 nM.
